The text below walks through data of patent US20250314655A1 (AUTOLUS, published 2025).

In the assay the target is T1, TRBC1 peptide (biotinylated) (human, also: biotinylated (site not given here)).
T1 construct: In the monoclonal screen: biotinylated, 0.5 ug/ml on neutravidin-coated plates; In the polyclonal phage ELISA also presented as BSA or OA conjugate of the C-terminal-cysteine form; also called Bio-TRBC1; biotinylated TRBC1
T1 peptide: VLEDLNKVFPPEVAV
Description: TRF assay, scFv on biotin-peptide/neutravidin plate. As for the experimental part:
The scFv populations from round-2 and round-3 selection outputs were sub-cloned into the pSANG10-3F expression vector and transformed into E. coli BL21 (DE3) cells. 1128 individual transformants (564 clones/TRBC peptide) were picked into 12×96 well culture plates (94 clones/plate) and antibody expression was induced using autoinduction media. Recombinant monoclonal antibodies secreted into culture supernatant after overnight induction were tested for binding to biotinylated TRBC1 and TRBC2 immobilised on neutravidin coated Nunc Maxisorp™ 96 well plates.

No end group written: not given here.

B1: CP_01_F02 (scFv, not shown: small tags and cut ends)
scFv: QVQLVESGGGVVQPGRPLRLSCAASGFTFSSYAMHWVRQAPGKGLEWVAVISYDGSNKYYADSVKGRFTISRDNSKNTLYLQMNSLRAEDTAVYYCARAGYSYADYWGQGTMVTVSSGGGGSGGGGSGGGASDIQMTQSPSSLSASVGDRVTITCRASQGIRNDLGWYQQKPGKAPKRLIYAASSLQSGVPSRFSGSGSGTEFTLTISSLQPEDFATYYCLQHNSYPLTFGGGTKVDIKRTAAA
notes: scFv from pSANG10-3F (His6, tri-FLAG), culture supernatant
For the molecule B1, the TRBC1 binding came out at 302000 TRF units.
